Laboratory results as given in patent US20220242939A1 (BIOARCTIC, published 2022).
Non-standard residues stand in square brackets, D forms with d. No end group written: not given here. Ahx = NCCCCCC(=O)O

T1: G200 N-terminal neo-epitope peptide GQPLQE-Acp-C (SEQ ID NO:50) conjugated to BSA (human, not fully specified (residue 8); printed as GQPLQE-Acp-C; also: C-terminal Cys conjugated to BSA carrier)
T1 construct: also called G200-BSA peptide; G200-peptide
T1 peptide: GQPLQE[Ahx]C


Tests used:
[1] = target: T1, G200 N-terminal neo-epitope peptide …; experiment: second direct ELISA, G200-BSA peptide coated at 1 µg/ml
Method: (§1) The screening was performed according to standard ELISA protocols. Briefly, 1 μg/ml solutions of BSA-conjugated neo-epitope peptides, recombinant C-terminal ApoE fragment, negative control peptide and full-length ApoE were prepared by dilution in PBS. 50 μl/well were added to an ELISA half-area 96 well microtiter plate, the plate was sealed with adhesive sealer and incubated over night at 4° C. After discarding the solution, the plates were blocked with 150 μl/well of protein-free blocking solution (Pierce) for 1 h at room temperature with shake (900 rpm). The plates were washed four times with washing buffer containing 0.28 mM NaH₂PO₄, 2.5 mM Na₂HPO₄, 150 mM NaCl, 0.1% TWEEN®-20 and 0.0075% Kathon CG. Generated recombinant antibodies of interest were serially diluted 3-fold with a starting dilution at 0.5 μg/ml (mixed 1:1 with dilution buffer: PBS with 0.1% BSA and 0.05% TWEEN®-20). An anti-ApoE C-terminal antibody was used as a reference antibody (ApoE E-8 mouse monoclonal, cat. no. sc-393302; Santa Cruz Biotechnology). 50 μl/well were added into the ELISA plates and incubated for 2 h at room temperature with shake (900 rpm). The plates were washed four times as described previously. […] After another wash (as described previously), 50 μl/well of K-Blue® aqueous substrate (Neogen) were added, and the reaction was stopped after 5-15 min with 50 μl/well of 0.5 M […]. The optical density at 450 nm was read using an ELISA reader (Tecan). The optical density was plotted against the antibody concentration to generate concentration-response curves (FIG. 16).
(§2) These were added in the same molarity (0.1 μM) to provide an equal number of molecules available for binding by the antibodies (BSA-coupled peptides were coated at 1 μg/ml as before).

[2] = target: T2, recombinant C-terminal ApoE fragment G200-HIS (ApoE-G200-H299-10xHIS) (human, UniProt P02649 218-317); experiment: SPR (Biacore 8K), G200-HIS amine-coupled on CM5, antibody as analyte, bivalent analyte fit (kd1)
T2 construct: also called G200-HIS fragment
T2 sequence (P02649 other isoform, or with tags, fused parts or gaps limits assumed): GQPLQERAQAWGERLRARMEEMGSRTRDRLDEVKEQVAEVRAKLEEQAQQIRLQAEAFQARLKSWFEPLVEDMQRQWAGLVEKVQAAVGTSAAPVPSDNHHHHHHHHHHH

[3] = target: T3, recombinant full-length ApoE4 (aa 1-299; SEQ ID NO:45; Abcam cat. no. ab50243) (human, UniProt P02649 19-317); experiment: direct ELISA, second protocol; proteins coated at 0.1 uM, BSA peptides at 1 ug/ml; antibody in 3-fold dilutions from 3000 ng/ml; blank reduced OD 450 nm
T3 construct: Bought protein; also called recombinant ApoE4 full-length protein
T3 sequence (P02649 19-317 C130R limits assumed): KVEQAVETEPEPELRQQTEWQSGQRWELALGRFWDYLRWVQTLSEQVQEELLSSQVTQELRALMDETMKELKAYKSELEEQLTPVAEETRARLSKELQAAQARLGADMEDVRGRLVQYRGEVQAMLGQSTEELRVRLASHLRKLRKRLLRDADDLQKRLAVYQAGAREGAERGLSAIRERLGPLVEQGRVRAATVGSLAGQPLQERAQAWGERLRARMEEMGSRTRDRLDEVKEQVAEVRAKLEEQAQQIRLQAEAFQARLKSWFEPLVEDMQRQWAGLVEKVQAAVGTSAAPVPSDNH
Method: as §1, with “Generated recombinant antibodies of interest were serially diluted 3-fold with a starting dilution at 0.5 μg/ml (mixed 1:1 with dilution buffer: PBS with 0.1% BSA and 0.05% TWEEN®-20).” left out
as §2

[4] = target: T2, recombinant C-terminal ApoE fragment …; experiment: SPR (Biacore 8K), G200-HIS amine-coupled on CM5, antibody as analyte, bivalent analyte fit (ka1)
[5] = target: T2, recombinant C-terminal ApoE fragment …; experiment: BLI (Octet RED384), G200-HIS captured on anti-HIS biosensor, antibody as analyte, 1:2 bivalent analyte fit
Method: Selectivity evaluation and KD determination of recombinant antibodies by bio-layer interferometry: Binding interactions between the N-terminal neo-epitope peptide G200 (SEQ ID NO:50) conjugated to BSA (ligand) and the recombinant antibodies produced in Example 11 (analyte) were evaluated using an Octet RED384 instrument (ForteBio). All analyzed proteins were diluted in 1×Kinetics Buffer (ForteBio).
To analyze the antibody-target interaction and to determine the binding affinity of the recombinant antibodies for recombinant C-terminal ApoE fragment G200-HIS (SEQ ID NO:48), anti-HIS capture biosensors (HIS1K) were used. In the first step (loading step), HIS-tagged recombinant C-terminal ApoE fragment was captured onto the surface of the biosensor. Next, a concentration gradient of pure antibodies was prepared ranging from 150 nM to 2.5 nM in 2-fold serial dilutions. Subsequently, the HIS1K biosensors with ligand were dipped in wells containing diluted antibodies, and the association phase was monitored for 600 s. For monitoring the dissociation phase, the HIS1K biosensors with ligand were moved to a well containing 1× Kinetics Buffer and the dissociation was monitored for 1000 s. For evaluation of the kinetic experiments, the Octet Data Analysis software was used. All values collected from interaction analysis were blank subtracted, and a 1:2 binding kinetics global fit model (bivalent analyte) was used for the evaluation.
Selectivity evaluation and KD determination of recombinant antibodies by bio-layer interferometry: Binding interactions between the recombinant G200 C-terminal ApoE fragment (ligand) and recombinant antibodies (analyte) were evaluated by using an Octet RED384 instrument (ForteBio).

EC50 [1] [ng/mL] | koff [2] [s⁻¹] | binding result [3] | kon [4] [M⁻¹ s⁻¹] | Kd [5] [nM] | Binder
11.6 | 0.0105 | no binding (tested: 3000 ng/ml) | 260000 | 5.2 | 23D5, recombinant IgG2c antibody (antibody, V domains shown) VH: EVQLVESGGGLVKPGGSLKLSCSASGFTFSRYAMSWVRQSPEKRLEWVAEINSGGSYSFYSDTVTGRFTISRDNAKNTLFLEMSSLRSEDTAIYYCARQLSGTDYYGTDYWGQGTSVTVSS VL: DVLMTQTPLSLPVSHGDQASISCRSSQSLLYSNGNTYLEWYLQKPGQSPKLLIYKVSNRFSGVPDRFSGSGSGTDFTLKISRVEAEDLGVYYCFQGSHVPYTFGGGTKLEIK
7.2 | 0.0035 | no binding (tested: 3000 ng/ml) | 4.98e+06 | 9.7 | 28F2, recombinant IgG2c antibody (antibody, V domains shown) VH: QIQLVQSGPDLKKPGETVKISCKASGYTFTNYAMHWMKQAPGKALKWMGWINTYTGEPTFADDFKGRFAFSLETSASTAYLQINSLKNEDMATYFCAREGYYDRSHYFDYWGQGTTLTVSS VL: DVLMTQTPLSLPVSLGDQASISCRSSLSLVHGDGNTYLEWYLQKPGQSPKLLIYKVSNRFSGVPDRFSGSGSGTDFTLKISRVEAEDLGVYYCLQGSHIPFTFGSGTKLEIK
13 | 0.0029 | no binding (tested: 3000 ng/ml) | 2.88e+06 | 1.9 | 7C7, recombinant IgG2c antibody (antibody, V domains shown) VH: EVQLVESGGGLVKPGGSLRLSCAASGFTFSSFAMSWVRQSPERRLEWVAEISRGGGYAFYSDTVTGRFTISRDNARNTLFLEMGSLRSEDTAMYYCSRQLTGTDYYAMDYWGQGTSVTVSS VL: DVLLTQTPLSLFVSLGDQASISCRSSQSIVYTNGNTYLEWYLQKPGQSPKLLIYKVSNRFSGVPDRFSGSGSGTDFTLKISRVEAEDLGVYYCFQGSQVPYTFGGGTKLELK
7.3 | 0.0038 | no binding (tested: 3000 ng/ml) | 1.2e+06 | 0.8 | 7B10, recombinant IgG2c antibody (antibody, V domains shown, also called 7610) VH: AVQLVESGGGLVKPGRSLKLSCAASGFTFSSYAMSWVRQFPDKRLDWVAEISSGGGSTNYLDTVTGRFTISRDNAKNTLYLEMNSLRSEDTAMYYCARQLVGTDYYGTDYWGQGTSVTVSS VL: DVLMTQTPLSLPVSLGDQASISCRSSQNIVYSNGNTYLEWYLQKPGQSPKLLIYKVSNRFSGVPDRFSGSGSGTDFTLKISRVEAEDLGVYYCFQGSHVPYTFGGGTKLEIK
6.9 | 0.006 | no binding (tested: 3000 ng/ml) | 8.15e+07 | 0.9 | 4E6, recombinant IgG2c antibody (antibody, V domains shown, also called recombinant anti-G200 antibody 4E6) VH: EVQLVESGGDLVKPGGSLKLSCAASGFTFSSYAMSWVRQSPEKRLEWVAEISGSGSRDHYTDSVTGRFTVSRDNAKNTLYLEMSSLRSEDTAIYYCARQLTGTDYYGTDYWGQGTSVTVSS VL: DVLMTQIPLSLPVSLGDQASISCRSSQSIVYSNGNTYLEWYLQRPGQSPKLLIYKVSNRFSGVPDRFSGSGSGTDFTLKISRVEAEDLGVYYCFQGSHLPYTFGGGTKLEIK
5.1 | 0.0024 | no binding (tested: 3000 ng/ml) | 8.73e+06 | 0.8 | 17G4, recombinant IgG2c antibody (antibody, V domains shown) VH: EVQLVESGGGLVKPGGSLKLSCSASGFTFSRYAMSWVRQSPEKRLEWVAEINSGGSYSFYSDTVTGRFTISRDNAKNTLFLEMSSLRSEDTAIYYCARQLTGTDYYGTDYWGQGTSVTVSS VL: DVLMTQTPLSLPVSHGDQASISCRSSQSLLYSNGNTYLEWYLQKPGQSPKLLIYKVSNRFSGVPDRFSGSGSGTDFTLKISRVEAEDLGVYYCFQGSHVPYTFGGGTKLEIK
